# B1: murine HIP polypeptide (mouse hedgehog interacting protein) (receptor)
# chain: LGFFEGDAKFGERSEGSGARRRRCLNGNPPKRLKRRDRRVMSQLELLSGGEILCGGFYPRVSCCLQSDSPGLGRLENKIFSATNNSECSRLLEEIQCAPCSPHSQSLFYTPERDVLDGDLALPLLCKDYCKEFFYTCRGHIPGLLQTTADEFCFYYARKDAGLCFPDFPRKQVRGPASNYLGQMEDYEKVGGISRKHKHNCLCVQEVMSGLRQPVSAVHSGDGSHRLFILEKEGYVKILTPEGELFKEPYLDIHKLVQSGIKGGDERGLLSLAFHPNYKKNGKLYVSYTTNQERWAIGPHDHILRVVEYTVSRKNPHQVDVRTARVFLEVAELHRKHLGGQLLFGPDGFLYIILGDGMITLDDMEEMDGLSDFTGSVLRLDVDTDMCNVPYSIPRSNPHFNSTNQPPEVFAHGLHDPGRCAVDRHPTDININLTILCSDSNGKNRSSARILQIIKGRDYESEPSLLEFKPFSNGPLVGGFVYRGCQSERLYGSYVFGDRNGNFLTLQQSPVTKQWQEKPLCLGASSSCRGYFSGHILGFGEDELGEVYILSSSKSMTQTHNGKLYKIVDPKRPLMPEECRVTVQPAQPLTSDCSRLCRNGYYTPTGKCCCSPGWEGDFCRIAKCEPACRHGGVCVRPNKCLCKKGYLGPQCEQVDRNVRRVTRAGILDQIIDMTSYLLDLTSYIV
# Target: Shh-AP fusion protein (Sonic hedgehog fused to alkaline phosphatase)
# Experiment: ligand-receptor binding study, Scatchard analysis (FIG. 3)
# Chain of Shh-AP fusion protein (Sonic hedgehog fused to alkaline phosphatase) (Q62226 25-198): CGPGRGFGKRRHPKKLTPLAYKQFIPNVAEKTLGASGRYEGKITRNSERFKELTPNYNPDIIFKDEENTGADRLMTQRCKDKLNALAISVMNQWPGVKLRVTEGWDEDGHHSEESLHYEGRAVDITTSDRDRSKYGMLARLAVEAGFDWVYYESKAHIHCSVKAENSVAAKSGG
binder,measurement,value
B1,Kd,1 nM

# Reference: US20030143595A1
